These results are taken from patent US11702475B2, “Cysteine engineered fibronectin type III domain binding molecules” (Janssen Biotech, Inc., priority 2013, dated 2023).

A short description of data set [1]: Differential scanning calorimetry in PBS of FN3 domains. The format is physicochemical. The conditions noted are these: DSC in PBS; for Tm: EGFR-binding FN3 domains and stabilised mutants; for Thermal Stability (Tm): c-Met-binding FN3 domains. The text has this:
A subset of the EGFR binding FN3 domains was engineered to increase the conformational stability of each molecule. The mutations L17A, N46V, and E86I (described in US Pat. Publ. No. 2011/0274623) were incorporated into clones P54AR4-83, P54CR4-31, and P54AR4-37 by DNA synthesis. […] Differential scanning calorimetry in PBS was used to assess the stability of each mutant in order to compare it to that of the corresponding parent molecule.
Thermal Stability of c-Met-Binding FN3 Domains Differential scanning calorimetry in PBS was used to assess the stability of each FN3 domain.

The nature of data set [2]: Thermal stability of cysteine-NEM conjugates by DSC. The format is physicochemical. The conditions noted are these: for First Scan Tm: DSC 25-100 °C, 1 °C per minute; for Second Scan Tm: second identical scan. In short, it runs like this: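 Cysteine-NEM conjugates heated from 25 °C to 100 °C at 1 °C/min by DSC, with a repeat scan to check reversibility of unfolding. Melting temperature derived by fitting to a 2-state unfolding model.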
A general note: In DSC, transitions show as peaks or steps in heat flow.

Data set [3] is described as follows: Analytical size exclusion chromatography (percent monomer). The data set is classed as physicochemical. The conditions noted are these: NEM-conjugated cysteine variants; SEC, Abs280 monomer region 5.5-6 minutes vs oligomer region 4-5.3 minutes. In short, it runs like this: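 Purified FN3 domains were run on a Superdex 75 5/150 column in PBS pH 7.4 at 0.3 mL/min with A280 detection. Percent monomer came from integrating the monomer peak (5.5–6 min) against oligomer peaks (4–5.3 min).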
For orientation: SEC sorts molecules by how far they enter the pores of the column.

Data set [4] deals with EGFR-overexpressing human tumor cell line H1573. The data set can be described thus: Cytotoxicity assay in H1573 cells. The data set is classed as cell-based. The conditions noted are these: cysteine variants conjugated to VC-MMAF, Cell TiterGlo at 70 hours, read-out: IC50. The method, boiled down: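 Cysteine-variant proteins conjugated to an auristatin tubulin inhibitor via non-cleavable PEG4 or cleavable Val-Cit/Val-Lys linkers were added to attached cells in phenol red-free RPMI with 5% FBS. Viability was read by CellTiter-Glo at 70 h. IC50 came from sigmoidal variable-slope fits.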
(In ATP-based viability assays light output follows the ATP content of the culture.)

Numbering of substitutions follows the chain as printed. In names and notes the source's numbering stands.

B1: P54AR4-83: EGFR-binding FN3 domain, SEQ ID NO: 25 (protein)
chain: LPAPKNLVVSEVTEDSLRLSWDDPWAFYESFLIQYQESEKVGEAINLTVPGSERSYDLTGLKPGTEYTVSIYGVHNVYKDTNMRGLPLSAEFTT
modifications: EGFR binding FN3 domain
The term Tm denotes the temperature at the midpoint of the melting transition. On to B1, for which, in data set [1], the Tm was 50.6 °C.

B2: V74C: cysteine variant of P54AR4-83v2; NEM and VC-MMAF conjugates (conjugate)
chain: B1 chain with L17A, N46V, V74C, E91I
modifications: left off: small tags and cut ends
notes: cysteine variant of P54AR4-83v2; NEM and VC-MMAF conjugates
By IC50 is commonly meant the concentration that inhibits the measured activity by half. In the case of B2, in data set [2], the “First Scan Tm” value was determined as 68 °C and the “Second Scan Tm” value is 67 °C. The molecule further came in with a Percent monomer in data set [3] of 100%. Moreover, the IC50 in data set [4] worked out at 3.13 nM.

B3: P54AR4-37: EGFR-binding FN3 domain, printed SEQ ID NO: 22 (that of P54AR4-73) (protein)
chain: B1 chain with D22T, D23W, W25Y, F27D, Y28L, E29D
modifications: left off: small tags and cut ends
As to B3, the Tm in data set [1] amounted to 45.9 °C.

B4: P54AR4-37v2: P54AR4-37 with mutations L17A, N46V, E86I; SEQ ID NO: 29 (protein)
chain: B1 chain with D22T, D23W, W25Y, F27D, Y28L, E29D
modifications: EGFR binding FN3 domain
With B4, the Tm in data set [1] stood at 64.2 °C.

B5: L88C: cysteine variant of P54AR4-83v2 (SEQ ID NOS: 212 and 250); NEM and VC-MMAF conjugates (conjugate)
chain: MLPAPKNLVVSEVTEDSARLSWDDPWAFYESFLIQYQESEKVGEAIVLTVPGSERSYDLTGLKPGTEYTVSIYGVHNVYKDTNMRGLPCSAIFTT
modifications: NEM or vcMMAF conjugate; EGFR binding FN3 domain
notes: NEM and VC-MMAF conjugates
As to B5, in data set [2], the “First Scan Tm” value turned out to be 70 °C and the “Second Scan Tm” value came out at 70 °C. This molecule also had a Percent monomer in data set [3] of 98%. The concentration for half-maximal inhibition (IC50) in data set [4] came to 0.81 nM.

B6: I91C: cysteine variant of P54AR4-83v2 (SEQ ID NOS: 215 and 253); NEM and VC-MMAF conjugates (conjugate)
chain: B5 chain with C89L, I92C
modifications: NEM or vcMMAF conjugate; EGFR binding FN3 domain
notes: NEM and VC-MMAF conjugates
On to B6, for which, in data set [2], the “First Scan Tm” value was found to be 70 °C and the “Second Scan Tm” value was 69 °C. The Percent monomer in data set [3] worked out at 100%. For the same molecule, the IC50 in data set [4] was 0.54 nM.

B7: A90C: cysteine variant of P54AR4-83v2 (SEQ ID NOS: 214 and 252); NEM and VC-MMAF conjugates (conjugate)
chain: B5 chain with C89L, A91C
modifications: NEM or vcMMAF conjugate; EGFR binding FN3 domain
notes: NEM and VC-MMAF conjugates
Regarding B7, in data set [2], the “First Scan Tm” value amounted to 67 °C and the “Second Scan Tm” value turned out to be 67 °C. Moreover, the Percent monomer in data set [3] is listed as 100%. Also, the IC50 in data set [4] was determined as 1 nM.

B8: S89C: cysteine variant of P54AR4-83v2 (SEQ ID NOS: 213 and 251); NEM and VC-MMAF conjugates (conjugate)
chain: B5 chain with C89L, S90C
modifications: NEM or vcMMAF conjugate; EGFR binding FN3 domain
notes: NEM and VC-MMAF conjugates
For the molecule B8, in data set [2], the “First Scan Tm” value came to 72 °C and the “Second Scan Tm” value is 71 °C. This molecule also gave a Percent monomer in data set [3] of 96%. The IC50 in data set [4] amounted to 0.94 nM.

B9: P54CR4-31: EGFR-binding FN3 domain, SEQ ID NO: 26 (protein)
chain: LPAPKNLVVSEVTEDSLRLSWTAPDAAFDSFLIQYQESEKVGEAINLTVPGSERSYDLTGLKPGTEYTVSIYGVLGSYVFEHDVMLPLSAEFTT
modifications: EGFR binding FN3 domain
As to B9, the Tm in data set [1] stood at 60.9 °C.

B10: P54CR4-31v2: P54CR4-31 with mutations L17A, N46V, E86I; SEQ ID NO: 28 (protein)
chain: B9 chain with L17A, N46V, E91I
modifications: EGFR binding FN3 domain
As for B10, the Tm in data set [1] was 78.9 °C.

B11: P114AR7P92-G8: c-Met-binding FN3 domain, SEQ ID NO: 36 (protein)
chain: LPAPKNLVVSRVTEDSARLSWTAPDAAFDSFVIRYFEFLGSGEAIVLTVPGSERSYDLTGLKPGTEYVVQILGVKGGYISIPLSAIFTT
modifications: c-Met binding FN3 domain
As for B11, the “Thermal Stability (Tm)” value in data set [1] was determined as 90.9 C.

B12: P114AR7P95-G7: c-Met-binding FN3 domain, SEQ ID NO: 48 (protein)
chain: B11 chain with V32W, F38L, G40S, S41T, Q70N, L72M, Y78S, I81P
modifications: c-Met binding FN3 domain
Consider B12, for which the “Thermal Stability (Tm)” value in data set [1] was 87.2 C.

B13: P114AR5P74-A5: c-Met-binding FN3 domain, SEQ ID NO: 32 (protein)
chain: B11 chain with V32W, F36D, F38V, L39V, G40V, S41G, V68Y, Q70N, Y78S, I81V
modifications: c-Met binding FN3 domain
For B13, the “Thermal Stability (Tm)” value in data set [1] came out at 74.1 C.

B14: P114AR7P95-H8: c-Met-binding FN3 domain, SEQ ID NO: 49 (protein)
chain: B11 chain with V32W, L39V, G40S, S41K, Q70N, L72M, Y78S, I81P
modifications: c-Met binding FN3 domain
Consider B14, for which the “Thermal Stability (Tm)” value in data set [1] came to 83 C.

B15: P114AR7P93-G8: c-Met-binding FN3 domain, SEQ ID NO: 39 (protein)
chain: B11 chain with V32W, G60D, V68G, Q70T, L72N, Y78R, I79V, I81T
modifications: c-Met binding FN3 domain
As to B15, the “Thermal Stability (Tm)” value in data set [1] came out at 76.8 C.

B16: P114AR7P94-E5: c-Met-binding FN3 domain, SEQ ID NO: 42 (protein)
chain: B11 chain with V32W, V68A, Q70N, L72M, Y78R, I79V, I81V
modifications: c-Met binding FN3 domain
On to B16, for which the “Thermal Stability (Tm)” value in data set [1] turned out to be 80 C.

B17: P114AR7P92-H5: c-Met-binding FN3 domain, SEQ ID NO: 37 (protein)
chain: B11 chain with V32W, F36L, G40L, S41G, L72M, Y78T, I79V, I81P
modifications: c-Met binding FN3 domain
Turning to B17, the “Thermal Stability (Tm)” value in data set [1] was 87 C.

B18: P114AR7P95-D4: c-Met-binding FN3 domain, SEQ ID NO: 45 (protein)
chain: B11 chain with V32W
modifications: c-Met binding FN3 domain
As for B18, the “Thermal Stability (Tm)” value in data set [1] was determined as 85.3 C.

B19: P114AR7P93-H9: c-Met-binding FN3 domain, SEQ ID NO: 40 (protein)
chain: B11 chain with V32W, L72I, Y78H, I81L
modifications: c-Met binding FN3 domain
Turning to B19, in data set [1], the “Thermal Stability (Tm)” value amounted to 88.2 C.

B20: P114AR7P92-F6: c-Met-binding FN3 domain, SEQ ID NO: 35 (protein)
chain: B11 chain with V32W, Q70N, Y78G, I79L, I81V
modifications: c-Met binding FN3 domain
As to B20, the “Thermal Stability (Tm)” value in data set [1] is 76.8 C.

B21: P114AR7P95-F10: c-Met-binding FN3 domain, SEQ ID NO: 47 (protein)
chain: B11 chain with V32W, L39T, G40T, S41A, Q70N, L72M, Y78S, I81P
modifications: c-Met binding FN3 domain
Consider B21, for which the “Thermal Stability (Tm)” value in data set [1] is reported as 85.2 C.

B22: P114AR7P94-A3: c-Met-binding FN3 domain, SEQ ID NO: 41 (protein)
chain: B11 chain with V32W, Q70N, L72M, Y78K, I81P
modifications: c-Met binding FN3 domain
B22: in data set [1], the “Thermal Stability (Tm)” value turned out to be 86.2 C.
